Measurements reported in the supplement of paper PMC9170038.

System: MS2 coat protein
Experiment: apparent KD of MS2 coat protein; higher = weaker reporter binding
Conditions: Eterna round: R107
How it was run: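 Titration buffer: 100 mM Tris-HCl pH 7.5, 80 mM KCl, 4 mM MgCl2, without or with constant ligand. Designed RNA switches transcribed on-chip from Illumina sequencing clusters received SNAP-549-labelled MS2 coat protein in twofold steps from 0.7 or 1.5 nM to 3 µM. Apparent KD is the median per design of fits to normalised cluster binding curves.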

[1] = input ligand: theophylline 20 uM
[2] = input ligand: theophylline 2 mM
[3] = input ligand: tryptophan 2.4 mM

Sequence | apparent KD of MS2 coat protein (input ligand: arginine 13.2 mM) | apparent KD of MS2 coat protein (input ligand: none) | apparent KD of MS2 coat protein [1] | apparent KD of MS2 coat protein [2] | apparent KD of MS2 coat protein [3]
AUAUUUAACGGAAGGAGCGCGGAUAAUAAAGUGGGUAAACAUGAGGAUCACCCAUGUAAACCGCAGGUAGGUCGCCGAUAUAUAU [AstrosEXyARgB#7] | 26.4 nM | 63.6 nM | 54.8 nM | 51.2 nM | 41.4 nM
AUCCUCUAGAAUGAUACCAGACCAAACAUGAGGAUCACCCAUGUAUCAGGCAAUUGUUACGUCCCUUGGCAGCAUGUAUGCCGAC [Theo B SS t3] | 17.7 nM | – | 31.5 nM | – | 20.2 nM
AUCGCACCUGGUGAUACCAGCAAUUGCUCGUGACAUGAGGAUCACCCAUGUGGCCAGUGAUGCCCUUGGCAGCAUGGUCGGUGCA [Same State - Theophylline B (Freestyle 25)] | 98.2 nM | 317 nM | 335 nM | 64.5 nM | 288 nM
AUCGCACCUGGUGAUACCAGCGUUUGCUCGCGACAUGAGGAUCACCCAUGUGGCCAGUGAUGCCCUUGGCAGCAUGGUCGGUGCA [Same State - Theophylline B (Freestyle 27)] | 75.5 nM | – | 309 nM | – | 314 nM
AUCUUUGACGAUCUGGGAAAACCAGAUCGGCGAGGACCGGUACGGCCGCCACUCGUGUAUAAUAUACAUGAGGAUCACCCAUGUA [#19 Tryptophan A Same State] | 27.3 nM | – | 61.3 nM | 53.9 nM | –
AUGCACGGGCUAAUCUGCGAUUGGCACGAUACCAGAGAUCAAGACCUCCCUUGGCAGCGUGUCACAUGAGGAUCACCCAUGUGGA [theeternabot_exclusion_MS2_Theo_A_40] | 43.4 nM | – | 127 nM | – | 141 nM
AUGCAUAGCGGAAGGAGCGCAAUAGAAUGACAUGAGGAUCACCCAUGUAUGUGAUGUGGGUUGCAGGUAGGUCGCCGAGUGGUAU [Exclusion - Arginine B (Freestyle 1)] | 70.7 nM | 60.5 nM | 98.8 nM | 62.6 nM | 55 nM
AUGCCUAGUGGAAGGAGCGAGGGUCCUCUCAACAUGAGGAUCACCCAUGUUCUUUUGCACCCUCAGGUAGGUCGCCAUUGGGACA [Veanaris] | 30.8 nM | 59.8 nM | 92.4 nM | 65.8 nM | 76 nM
AUGGCGUUGGUGAGGCGGUUUAAUGGCGAUACCAGCGUGGAAACACGCCCUUGGCAGCGCCAAAACAUGAGGAUCACCCAUGUUA [Budejovice] | 13.2 nM | 13.4 nM | 28 nM | 132 nM | 16.4 nM
AUGUAGAACCGAAGGAGCGCGAUAACAUGAGGAUCACCCAUGUAGCUUUGGUGGCCUCGAUCGCAGGUAGGUCGCGGAAGUAGUA [Exclusion - Arginine B / A] | 40.8 nM | 102 nM | 213 nM | 231 nM | 155 nM
AUGUAGCCGUCGACUGUACCUUAUGCCGAUACCAGCUACCCGUGAAGCCCUUGGCAGCGGGAAACAUGAGGAUCACCCAUGUCAG [theeternabot_exclusion_MS2_Theo_A_13] | 19.6 nM | – | 29.6 nM | – | 24.7 nM
AUGUCGUUGAAUACAGCGGCAUGGUGUGAUACCAGAAUGAUCAAAUUCCCUUGGCAGCAUCACAUGAGGAUCACCCAUGUUAAGG [SSTheo A #17] | 27.5 nM | – | 50 nM | – | 46.4 nM
AUGUCGUUGAAUAUAGCGGCUUGGUGUGAUACCAGAAUGAUCUAAUUCCCUUGGCAGCAUUACAUGAGGAUCACCCAUGUUUAGG [SSTheo A #19] | 24.4 nM | – | 29.6 nM | – | 28.8 nM
AUUAUAGUUUAUAACGAAGUUGAUACAGAAGGAGCGUGAAUAAUCACAGGUAGGUCGCUGAUAAUACAUGAGGAUCACCCAUGUU [JR_Nu_SSArginiA_Sub018] | 20.7 nM | 20.4 nM | 31.9 nM | 18.9 nM | 19.4 nM
AUUCCAUAGGUGCAGUUGUUAAAUGGCGAUACCAGCGUGGAAACACGCCCUUGGCAGCGCCAAAACAUGAGGAUCACCCAUGUUA [Kladno] | 48.3 nM | – | 111 nM | – | 94.8 nM
AUUUACAUGGUCAUAUAUAUAUCGUCAGAUACCAGACGAGAUAUUGUCCCUUGGCAGCUGUUACAUGAGGAUCACCCAUGUAAUU [JR_Nu_ExcTheophyA_Sub021] | 41 nM | – | 56.4 nM | – | 64.7 nM
CAACUGCUUGAGCUUACUUAUUGGACUUCCCGAGGACCGGUACGGCCGCCACUCGCAGGGACACAUGAGGAUCACCCAUGUAAAG [theeternabot_exclusion_MS2_Trp_A_42] | 17.3 nM | – | 21.1 nM | 19.6 nM | –
CAAGAAUGACGUACAGAUAACAAUAACGAUACCAGUACAUCAUUAUACCCUUGGCAGCGUUUCACAUGAGGAUCACCCAUGUACA [theeternabot_exclusion_MS2_Theo_A_14] | 15.4 nM | – | 20.1 nM | – | 17.6 nM

Sequence | apparent KD of MS2 coat protein (input ligand: arginine 13.2 mM) | apparent KD of MS2 coat protein (input ligand: none) | apparent KD of MS2 coat protein [1] | apparent KD of MS2 coat protein [2] | apparent KD of MS2 coat protein [3]
CAAUAUAUAUGAAGGAGCGUCGAAAAUGGGUAAACAUGAGGAUCACCCAUGUAAAGGGAACGACAGGUAGGUCGCAUAUGUAUUG [AstromonsSSArgB#9] | 171 nM | 165 nM | 195 nM | 261 nM | 190 nM
CAAUCUACCACCGGCCUACUGUACACUCGCCGAGGACCGGUACGGCCGCCACUCGACGUUCGACAUGAGGAUCACCCAUGUGGGU [theeternabot_exclusion_MS2_Trp_A_14] | 80.1 nM | – | 200 nM | 289 nM | –
CACGAAAGAUCGGCCGCCACUAAUCUAUGUGUACUAGCACAUGAGGAUCACCCAUGUUCUUGCGUUAGGACCGGGAUUGAGCGUG [#03 Exclusion Tryptophan B] | 23.4 nM | – | 27.6 nM | 24 nM | –
CAUAUAUAUAGAAGGAGCGUCGAAAAUGGGUAAACAUGAGGAUCACCCAUGUAAAGGGAACGACAGGUAGGUCGCUAUAUAUAUG [AstromonsSSArgB#3] | 99.1 nM | 161 nM | 187 nM | 208 nM | 175 nM
CAUCAUGGGCUUGGACAAAUUGUGCUUGAUACCAGAAAUCACCGGUUCCCUUGGCAGCAACCCACAUGAGGAUCACCCAUGUGGA [theeternabot_exclusion_MS2_Theo_A_4] | 18.6 nM | – | 20.1 nM | – | 23 nM
CCAUAUGUAACUGAUACCAGUGUACUGACAUGAGGAUCACCCAUGUUGGGUUUUGUUGUACACCCUUGGCAGCAGAAUCAUAUGG [AstrosExyTheB#17] | 48.3 nM | – | 73.6 nM | – | 53.9 nM
CCCAAGCCAGCUGAUACCAGUGACGUGGUCAGAAUGUGCGACAUGAGGAUCACCCAUGUACACCCUUGGCAGCAGUAGAACGGUU [theeternabot_exclusion_MS2_Theo_B_47] | 13.6 nM | – | 18.9 nM | – | 14.9 nM
CCGUAGCUAGGAAGGAGCGCAUACUUCACAUGAGGAUCACCCAUGUCGAGACGUGAGUCAGUGCAGGUAGGUCGCCUAGCUAUGG [Same State - Arginine B (Freestyle 28)] | 23.5 nM | 15.5 nM | 26.4 nM | 30.5 nM | 15.7 nM
CCUAUGCAGUCGGCCGCCACUGAACAUGAGGAUCACCCAUGUAAUUAAAAUUAAGGUCCUAAAAUCAGGACCGGGACUGUAUAGG [Ex Tryptophan B 6] | 37.6 nM | – | 43.3 nM | 56.6 nM | –
CCUAUGCAGUCGGCCGCCACUGAACAUGAGGAUCACCCAUGUUAUUAUAAAUAUGGUCCUAAAAUCAGGACCGGGACUGUAUAGG [Ex Tryptophan B 8] | 42.7 nM | – | 67.9 nM | 90 nM | –
CCUCAAUAGACGGCCGCCACUGAAACAUGAGGAUACAUGAGGAUCACCCAUGUGGGUGUGUUACGCAGGACCGGGUCAAGACCCG [Tryp B SS t1] | 304 nM | – | 435 nM | 1280 nM | –
CCUCACGAAAUCGAUGAAAGCAUGUGGCACCGAGGACCGGUACGGCCGCCACUCGCAUCCACACAUGAGGAUCACCCAUGUAAGA [theeternabot_exclusion_MS2_Trp_A_9] | 27.3 nM | – | 37.6 nM | 59.6 nM | –
CCUCAUGAACAUGAGGAUCACCCAUGUACACGAGGACCGGUACGGCCGCCACUCGAAUAACCUUAAUAUAAAUAAUAAUAAAAGG [5' end split MS2] | 14.5 nM | 16.7 nM | 21.5 nM | 19.1 nM | 45.5 nM
CCUUAAUAUAGAAGGAGCGCGCUAACAUGAGGAUCACCCAUGUAAAGGGUUUUUGGCUUAGCGCAGGUAGGUCGCUAUAAGAACC [Arg B Ex t1] | 74 nM | 128 nM | 162 nM | 131 nM | 134 nM
CGACACAUGAGGAUCACCCAUGUAAUGACGCGAGGACCGGUACGGCCGCCACUCGCAUGCCAAUGAGCGCAUGCGGCCUGGGUAU [Exclusion Tryp A GF6] | 17.5 nM | – | 23.6 nM | 19.5 nM | –
CGACUACAGCGUGAUACCAGUGACAGAUACCAGUCUAGACAUGAGGAUCACCCAUGUACGCGCCCUUGGCAGCACACUAGAUCGA [#29 Same State - Theophylline B] | 36.7 nM | – | 128 nM | – | 83.2 nM
CGAUCUUUCGAAAGAAGGAUCUUGUCUGAUACCAGAGACGAAAGUCUCCCUUGGCAGCAGUGCCAACAUGAGGAUCACCCAUGUU [Theophylline A 11] | 16 nM | – | 17.6 nM | – | 15.5 nM
CGCAACAUGAGGAUCACCCAUGUAAUGACGCGAGGACCGGUACGGCCGCCACUCGCCUGCCAAUGAGCGCAUGCGGCCUGGGUAU [Exclusion Tryp A GF7] | 11.9 nM | – | 16.1 nM | 13.5 nM | –
